Laboratory results as given in paper PMC4132707, “A dimeric state for PRC2” (Nucleic Acids Research, 2014).

Biological target: T1, MBP-EZH2 (uncleavable MBP fusion, three-alanine linker) (human, UniProt Q15910-2 2-751)
T1 construct: forward primer starts at codon 2 after the three alanines, reverse primer holds the stop codon; A short linker of three alanine residues connects MBP and EZH2; no PreScission site between them; Present as a subunit of the co-purified PRC2 5m complex; also called tagged EZH2; MBP-tagged EZH2; source: Sf9, baculovirus, co-expressed and co-purified with the other PRC2 subunits (amylose resin, …)
T1 sequence (Q15910 other isoform, or with tags, fused parts or gaps): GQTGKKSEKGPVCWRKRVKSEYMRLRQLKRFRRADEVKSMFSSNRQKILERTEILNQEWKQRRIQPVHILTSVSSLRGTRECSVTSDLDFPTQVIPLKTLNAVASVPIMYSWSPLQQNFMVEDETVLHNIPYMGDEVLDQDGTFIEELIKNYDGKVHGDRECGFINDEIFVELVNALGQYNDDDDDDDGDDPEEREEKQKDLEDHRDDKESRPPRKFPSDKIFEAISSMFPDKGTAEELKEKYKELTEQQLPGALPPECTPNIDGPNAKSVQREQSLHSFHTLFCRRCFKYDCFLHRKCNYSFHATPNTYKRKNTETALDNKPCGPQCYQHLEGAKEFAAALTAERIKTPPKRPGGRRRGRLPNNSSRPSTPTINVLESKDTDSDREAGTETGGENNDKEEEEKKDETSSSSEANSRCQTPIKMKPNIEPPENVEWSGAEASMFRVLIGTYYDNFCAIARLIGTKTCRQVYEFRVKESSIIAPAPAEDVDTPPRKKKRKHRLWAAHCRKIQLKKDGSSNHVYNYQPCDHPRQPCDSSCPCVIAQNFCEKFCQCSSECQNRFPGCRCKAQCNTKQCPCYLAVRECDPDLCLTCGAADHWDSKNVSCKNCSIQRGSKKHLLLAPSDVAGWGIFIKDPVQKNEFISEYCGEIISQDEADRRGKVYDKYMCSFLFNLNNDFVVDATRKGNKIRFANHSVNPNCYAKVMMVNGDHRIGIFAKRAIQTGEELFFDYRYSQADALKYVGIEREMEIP
Assay: pull-down; called co-immunoprecipitation by the paper; 0.1 mg purified nucleic acid-free PRC2 5m co-expressed with both MBP-EZH2 (uncleavable) and untagged EZH2, bound to amylose beads 30 min at 4°C in 10 mM Tris-HCl pH 7.5, 250 mM NaCl, 1 mM TCEP, washed twice, eluted with 20 mM maltose; immunoblotting (semi-quantitative for EZH2)
Conditions: both partners purified

B1: EZH2, untagged (cleavable MBP tag removed) (natural protein)
chain: not shown
notes: forward primer starts at codon 2 (GQTGKKS), reverse primer holds the stop codon; Present as a subunit of the co-purified PRC2 complex, never isolated alone; also called untagged EZH2; source: Sf9, baculovirus, co-expressed and co-purified with the other PRC2 subunits (amylose resin, PreScission cleavage, SEC); not shown: His6, N-terminal, cleaved; MBP, N-terminal, cleaved
  ratio of tagged to untagged EZH2 in the MBP pull down: ~3 tagged:untagged
